# Results from paper PMC10398996.
# Read-outs that look alike come from different tables or passages of the source.
# B1: endogenous mouse APLP2, Q06335 32-707 (natural protein)
# chain: GYIEALAANAGTGFAVAEPQIAMFCGKLNMHVNIQTGKWEPDPTGTKSCLGTKEEVLQYCQEIYPELQITNVMEANQPVNIDSWCRRDKRQCKSHIVIPFKCLVGEFVSDVLLVPDNCQFFHQERMEVCEKHQRWHTLVKEACLTEGLTLYSYGMLLPCGVDQFHGTEYVCCPQTKTVDSDSTMSKEEEEEEEDEEDEEEDYDLDKSEFPTEADLEDFTEAAADEEEEDEEEGEEVVEDRDYYYDPFKGDDYNEENPTEPSSEGTISDKEIVHDVKVPPTPLPTNDVDVYFETSADDNEHARFQKAKEQLEIRHRNRMDRVKKEWEEAELQAKNLPKTERQTLIQHFQAMVKALEKEAASEKQQLVETHLARVEAMLNDRRRIALENYLAALQSDPPRPHRILQALRRYVRAENKDRLHTIRHYQHVLAVDPEKAAQMKSQVMTHLHVIEERRNQSLSLLYKVPYVAQEIQEEIDELLQEQRADMDQFTSSISENPVDVRVSSEESEEIPPFHPLHPFPSLSENEDTQPELYHPMKKGSGMAEQDGGLIGAEEKVINSKNKMDENMVIDETLDVKEMIFNAERVGGLEEEPESVGPLREDFSLSSNALIGLLVIAVAIATVIVISLVMLRKRQYGTISHGIVEVDPMLTPEERHLNKMQNHGYENPTYKYLEQMQI
# What was measured:
# [1] = molecular target: APLP1 F1 (APLP1 with a C-terminal FKBP tag and HA tag); test: native gel or EMSA; Blue Native PAGE (4–15% Tris–HCl gel, overnight, 4 °C) of membranes of transiently transfected N2a cells solubilised with n-dodecyl-β-D-maltoside; no dimerizer (untreated or ethanol vehicle); Western blot; dimer as percent of total signal
# [2] = as above
# [3] = molecular target: APLP2 F1 (APLP2-763 with a C-terminal FKBP tag and HA tag); test: as above
# [4] = native gel or EMSA; as a1, but the cells were treated with 100 nM of the rapamycin analogue AP20187 (dimerizer) overnight, added 4 h post-transfection
# [5] = molecular target: APP F1 (APP695 with a C-terminal FKBP tag and HA tag); test: native gel or EMSA; Blue Native PAGE (4–15% Tris–HCl gel, overnight, 4 °C) of membranes of transiently transfected N2a cells solubilised with n-dodecyl-β-D-maltoside; no dimerizer (untreated or ethanol vehicle); Western blot; dimer as percent of total signal
# [6] = molecular target: endogenous human APP (human (endogenous in middle frontal gyrus)); test: native gel or EMSA; Blue Native PAGE, semi-denaturing conditions, of human middle frontal gyrus (controls n = 5, AD n = 6); Western blot with Y188
# [7] = molecular target: endogenous mouse APLP1 (mouse (endogenous in C57BL/6 cortex and mouse cells)); test: native gel or EMSA; Blue Native PAGE of membranes of homogenised mouse cortices (E14 to 12 months; WT, non-transgenic and J20 mice; KO cortices as antibody controls), n-dodecyl-β-D-maltoside; Western blot with Y188, 57 or D2-II
# [8] = molecular target: endogenous mouse APP (mouse (endogenous in C57BL/6 cortex and mouse cells)); test: as above
# [9] = molecular target: endogenous mouse APP (mouse (endogenous in C57BL/6 cortex and mouse cells)); test: as above; remark: listed apart in the source
# [10] = molecular target: hAPP with the FAD mutations Swedish (K670N/M671L) and Indiana (V717F), transgenic in J20 mice (human) (UniProt P05067); test: as above
# [11] = molecular target: T1, endogenous mouse APLP2 (mouse (endogenous in C57BL/6 cortex and mouse cells)), Q06335; test: as above; settings: remark: other sources report otherwise
# T1 chain: B1 chain
molecule,measurement,setting,value
APLP1 F1 (APLP1 with a C-terminal FKBP tag and HA tag),percent dimer,[1],31.8%
APLP2 F1 (APLP2-763 with a C-terminal FKBP tag and HA tag),percent in the HMW complex,[2],"< 20%, in the high molecular weight (HMW) complex"
same,percent dimer,[3],16.2%
same,percent in the HMW complex with AP20187,[4],> 60% of APLP2 in the HMW complex
APP F1 (APP695 with a C-terminal FKBP tag and HA tag),percent dimer,[5],22.2%
endogenous human APP (natural protein),percent dimer (non-demented controls),[6],21.8%
endogenous mouse APLP1 (natural protein),percent dimer,[7],45.6%
endogenous mouse APP (natural protein),percent dimer,[8],48.9%
same,percent dimer (1 to 12 months old mice),[8],49%
same,percent dimer (4 months),[8],61.3%
same,percent dimer (12 months),[8],54.8%
same,percent dimer,[9],45%
"hAPP with the FAD mutations Swedish (K670N/M671L) and Indiana (V717F), transgenic in J20 mice (from UniProt P05067 18-770) (natural protein)",percent dimer (4 months),[10],58.1%
same,percent dimer (12 months),[10],58%
B1,percent dimer,[11],26.1%
